These results are taken from PMC8065639.

The data set deals with T1, GST-PA14_51020-His (antitoxin) (Pseudomonas aeruginosa PA14) (UniProt A0A0H2Z7N8).
T1 sequence: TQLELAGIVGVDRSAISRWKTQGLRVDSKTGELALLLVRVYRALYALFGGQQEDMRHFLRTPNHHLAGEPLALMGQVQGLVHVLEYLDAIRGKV
Put plainly: EMSA. A general note: In EMSA bound probe runs differently from free probe, usually more slowly.

As to “CGGGCTGGAAGGTGGAGCGGGGAATCCGTCTGCAGGCGCCGCCTTTCTCCGATCACGAGGCTGCGCTGACCGACATCGCCGACTACCGCGCTCCCCAGGAACTGGGGAGTGCCATGCGCAGCGCCGGGGTGCAGGCATTCGAATACCGTTCGGCGCGTTGCCCGGAGCGCGGCTGCAATGTCGCCCTGTTCACGCCCGCG (double strand) [PA14_51010 coding region internal fragment]”, the binding entry was “no binding”.

For “GTTTTTCTCTCTATCACGCCGGTCAATGCTTGCGCGTGGTTCTCTAGGTTCGACCGAATCAAGGTGTGTTTTCAGCAAAATAATGATAGTTTGTTGTAAACACACATGAGGAGGTCGTCATGAGCGCTCTCATCAAGGAACGTCCCAGCGCCGATGCTGTCCTGGCCAAGGCCGTCCTGGCCGCGCGCGAGCAATTGGGG (double strand) [PA14_51020 upstream (operon promoter) fragment]”, the binding entry was “binds”.
